System: substrate protein (Seq Id no. 1) (URSCREENSARS-COV-2)

trypsin
cleavage bands on 15% SDS-PAGE (Sypro Ruby stain): We could clearly see the cleavage bands of expected molecular weight after gel staining

Reference: US20250003966
